In patent publication US20220119464A1:

Target: biotinylated L-form of SARS-CoV-2 HR1 (SARS-CoV-2)

Binder SLDQINVTFLDLEYEMKKLEEAIKKLEESYIDLKEL (modifications not checked) [L-form of EK1] has a Kd of 23 nM.
